Source: article PMC10394140

Biological target: Re-PAX5 P80R (Homo sapiens, UniProt Q02548 1-391, P80R)
Assay: EMSA

Chain of Re-PAX5 P80R (Q02548 whole entry P80R): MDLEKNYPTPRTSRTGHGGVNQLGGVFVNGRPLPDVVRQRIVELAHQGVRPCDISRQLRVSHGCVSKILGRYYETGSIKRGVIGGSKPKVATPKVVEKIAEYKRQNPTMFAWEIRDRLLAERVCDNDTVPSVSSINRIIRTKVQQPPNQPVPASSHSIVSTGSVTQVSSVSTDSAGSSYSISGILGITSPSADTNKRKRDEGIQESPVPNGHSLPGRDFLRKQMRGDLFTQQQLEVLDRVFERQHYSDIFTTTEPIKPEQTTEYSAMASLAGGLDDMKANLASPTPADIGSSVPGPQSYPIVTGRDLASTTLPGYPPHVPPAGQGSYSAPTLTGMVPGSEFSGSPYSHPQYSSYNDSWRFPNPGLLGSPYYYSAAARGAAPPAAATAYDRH

B1: Probe-1 (GINS1 promoter site1) (dsDNA)
DNA 1: GGTGCGGTGGCTCACGCTGTAATTCC
DNA 2: GGAATTACAGCGTGAGCCACCGCACC
  binding result: no binding
